# Experimental data: the DeepSol protein solubility set
# Test: soluble on expression in E. coli; label from the status in PepcDB or PDB records
row,Sequence,soluble on expression in E. coli
1,MTSIALQLLLLLQPYTLTIRRSKMSTKLKQNLEGSFFVVSFSACSPGSKCEISCNITTFRFILYNIAPLFIARKQRQRIGQFAVVRRVRDRKTGEKYAAKFIKKRRYATSRRGVTRQNIEREVRVLQKIRGNSNVVELHAVYETASDVIIVLELVSGGELFDHVCAKECLDEVEAAAFIKQILLAVRHLHSLHIVHLDIKPENVMLKQRGDSQIKIIDFGLSREIEPGAVVKDMVGTPEFVAPEVVNYEALSPATDMWAVGVVTYILLSGGSPFLGDNRDETFSNITRVRYHFSDRYFKNTSKHAKDFIYRLFVRDVDQRATVEECLQHPWIRGPEGNAIDIRKASCITISHIQSFKTRQRWKRCVELVMVLLKASKSSRRIGDGRFDEEDMVASCTLICAEEGNLRALHKLSALHKLLPNATRKSLKSSFSEPNGATAMHCAAKYGHAEVFNYFHMKGGNICARDDNGDTPLHVACRFAQHTVAGYVANEKIDVDSINKTGETALHCAVESADTRVVRLLLQLRPRLDLPNAREETPLHVAAARGHVDCVQALLDANSPIDAVEQDGKTALIIALENGNVDIASILITNGCDINHADHHGDTALHIASKHGLLQAVQTLCHCAVTVDSVNANKKTALHLAAHYGHVDIIRVLLLARADVTLRGDDGLTAELVAVAAERLEAHSLLKMVKSQEIREEYISQLYPLDTSLRRIKLKLLGHSQSGKTRLVQTLHSSRGISSFLESVTRRISDHYSPSSSMKDDGIHSTNGSFVSESNNNSSFDLAAAAGSKYAPPHSQYTRGIDVQTVNINGCGEFSVWEFGGYEPMHTCYDHFVGNADCIHLILYRTSDPTEVQYKQILYWMNFLKGRVTPFEPIGHCGFSSRRSKVIIVGTHATSSLFPQMNQEGEYVSSDIEAMLNTVRLRFETHFDMDHRLILLDATNPSCIGMKTLKMELAKCRTNILAKLLKPLAILDTVVNHLNLVRKKHANFPVITWPDFIQLVRNEINPLTGDAHCRQIVQQLQLIGELVYLRNDLCDADYVVLNAEWFGTHILGQLLSAEFLSKASPNGSYHTSSLAKIFPEIPEQSDLMTILEVLQLCAPDARTGAHEFPVFIQTEAPDSIWRPYSLKEKERDTVYGGVRILPMRGMERSLHSTFPRIQVALRRSINDYQPAKDTQLHQWSECSKLVSQDREAVIRMVGDAVEIRARGPSESATSMFYFMEDLINLVEHAAAEVGPGISLERHFISPKHLKEHREHPALFPPESMMEMQQRESLSVKGTQDEEELFTDVVCFGSRDVARHLTLGIDVGVADLQMASRCELACLLDPPHAMGRDWSILAVKLQLTDQVPDVDSTGQSLSRTDQLLNEWAIHHPEQASVGNLCRILVELGRCDARDALYRTVPLYVFAPLEDQFLLETNDSGVVSSCHSSSEHNPINI,not soluble
2,MGSDKIHHHHHHVDRGCQWRGDDSLRGQRHERRGQLRLMGAAEYASQVRTLPKLGLGVGLRNEHFNHILSERPNVDWFEAISENFMDSGGRPGWVIRQIAEHYPIVLHGVSLSIGSADPLNEGYLARLKLLADDVQAKWVSDHLCWTGVLSINSHDLLPLPLNEETLGHVTSRVHHVQEVLGRPLILENPSTYASFQTSDIPEPEFLRALSDATGCGLLLDVNNVYVSCFNDGTDPLEYLEKIPFEKVIQMHLAGHTNCGEFLLDTHDQPVTRGVWELFRLAWQRTGGAATLLEWDGDVPAFEDLHAEVLKAREFMAGEVEALHLYQGAAAPGRARVSNPVDHIVSPVRGHSRLDA,not soluble
3,MSEQQVQELEKKWYALQVEPGKENEAKENLLKVLELEGLKDLVDEVIVPAEEKVVIRAQGKEKYRLSLKGNARDISVLGKKGVTTFRIENGEVKVVESVEGDTCVNAPPISKPGQKITCKENKTEAKIVLDNKIFPGYILIKAHMNDKLLMAIEKTPHVFRPVMVGGKPVPLKEEEVQNILNQIKRGVKPSKVEFEKGDQVRVIEGPFMNFTGTVEEVHPEKRKLTVMISIFGRMTPVELDFDQVEKI,soluble
4,DEICKNQYLYRINQENYVLFSFDIFDTLISRNIAKPSAVFLIMKQKMRNMDFPLNLVKNFDRIRVEVEQYYYRNVCKNKYEDTNFDEIYNLLQQNFSLSFQQKEELMKLEINTEKETLYPIKKNIELVEELIKNEKRVVLISDMYFSSSIIRTFLNKFSPIFNNIPIYMSSEFRLKKNSGNLFKAILNLEKVDPKKWIHCGDNWVGDYLKPSNLEISTNFYINQLLPYEEFALNRNSLDMDLQKIIGISKKIR,not soluble
5,MAKLSGSIDVPLPPEEAWMHASDLTRYREWLTIHKVWRSKLPEVLEKGTVVESYVEVKGMPNRIKWTIVRYKPPEGMTLNGDGVGGVKVKLIAKVAPKEHGSVVSFDVHLGGPALLGPIGMIVAAALRADIRESLQNFVTVFAG,soluble
6,MNYKVTAEAIPDYQSKNAPISSYWMPDKFLEWSAENDKDLVYNQSRVPLTKRISPDKLSPSNQNQNKKTKIVALSMMNSQTSGNPSRGTTKFESYTFDYWQYIDTLVYWGGSSGEGIIVTPSADVIDEAHSNGVPVLGTIFLPPKEYGGKVDWVKTMLKKDEQGQYPFASQMVKVAKTYGFEGWFINEETQGLNADDAANMKALIQQVKKEDSSLQIMWYDAMTKDGKVDWQNQLNDQNATFVQDKAADAMFLNFWWTQNNLADQKLLEKSNLYAKNHNIDPYNIYAGIDVQAKDVQTPVKWNLLEKGNQATQTSIGLYAASATYTNASNWDDFQNRESAFWVNQKADPRQVDHSVNESWTGLSKYVLEKSAISGNEFNTNFNLGNGYNYFKAGQKISEMDWNDRSLAGILPSYRWIIDNEGKNKISPSFDFANAYNGGNSLKFMAEHLDAGKLEHHHHHH,not soluble
7,DSKDTRQFVKSIAKDAHRIGQDNDIYASVMIAQAILESDSGRSALAKSPNHNLFGIKGAFEGNSVPFNTLEADGNKLYSINAGFRKYPSTKESLKDYSDLIKNGIDGNRTIYKPTWKSEADSYKDATSHLSKTYATDPNYAKKLNSIIKHYQL,not soluble
8,MSCCFSKKLFGRRSKREDRYKVSEDAVPKPEEGGEPPKYSWDRREKVNAEDFTIANIHNTTLKKESKDGGPLQMENCTDSTILYLYQTSQVIIDDCRHCTIVLGPAAGSVFVRDCANCTIFTSCQQLRTRDCTSIRISILCPTEPIVENSSDIHFFHLAMRYPELKDQMHAVGLRPFTNRIASVHDFTPAGVNGKGNFRVTPEVVQISDGQEEILRAKGVILKPSPADFIPRFTDTTDPDPTFLYVLGKSEPVDELGDRAIELLHAIYKSGMQVMGTCDLETSTVDSKLVPFAGQAERMILFQLKGNLANLECDVEFDVMSENDLVPLRNLLIHLEGKKNG,not soluble
9,MKRFLLSLLALTTLVGCNSKDDNTPTPAKPLSEQQQAYLPTKKVKRISCTYIDEGTTSNTNSPNSYLEAELYNQTYTLRTAEYLYEYDNMGRINKVTIKQERKPEDVRTFTYKDYSVIITAPYDTEVNGQYDIQAVEYGLNAAGNTLGFGMYNEKQQLKSVGDEIITWENDNITKIISKDDREGNKILETVLTYYNNENKNKFNVFSFDFSRESRSFMNYFEMPIALIIGASPKNLPKKVVIPSSRYNGEIENKIIELTYTFDNDGFVKNISENEYLRTGTSVGAYYQNSSYGDIDATTMSNTLQDLMTKIDNGTVTGKSYKIINNKQNERVIQFTIPIKVEKDSNGKPLNLIVDKICEYTFRYITENNQKKLSQIEMNITFKPHLVTHYELNY,not soluble
10,MFIRGREMISAVIEALIGSISLSTGLHTKKIDANIRYLQQYEWFRIIYEDEKYRKLFITNYKVRSYLQSKLRVRLLVKNKNAQRRFLKLVEEQIEKRHTN,not soluble
11,MGSDKIHHHHHHVSRLDQLNDWLHQALQGKPHHLTTASADASFRRYFRVHLADGATLIAMDAPPPQEDCRPFVKVAALFEQAGLNVPKVLAQDVENGFLLLTDLGAQTFLDVLNEDNADTLFRDAIDALVTWQLASRPGVLPAYDEALLRRELCLFPDWYVARHLNVELSESQRSTLENAFSTIVRYNLAQPSVYVHRDYMPRNLMISTPSPGILDFQDAVYGPISYDVASLFKDAFISWQEERVLDGTIRYWEKARKAGLPVRSDFGDFYRDFEWMGLQRHLKVLGIFARIHYRDGKPKYLADTPRFMNYVRQVCVRYGELRPLLRLLDELEKREPQFGYTF,not soluble
12,MAHHHHHHMEDNDWTGHHSGDGDQNEGMMLNRMEAVMDEVEKLRNLNGALTLELQLAEKKLVIRHERIETLKHGLRQECAAKQELQRTLEAERVCHQAQLQDARNDALHWRQLYDDLLNNSHTRSRKHNGRHRNEHRSSTPTLEAALTSREPSSLADSPVAMGHGIIVKPIRGGGQKELN,soluble
13,MNNETSGKETASAPLCSPKLPVEKVQRIAKNDPEYMDTSDDAFVATAFATEFFVQVLTHESLHRQQQQQQQQVPPLPDELTLSYDDISAAIVHSSDGHLQFLNDVIPTTKNLRLLVEENRVRYTTSVMPPNEVYSAYVVNDTAPKPNIVEIDLDNDEDDDEDVTDQE,not soluble
14,AIAEAEGMLPPQSLSAKFEGSFAYLTVRDRLPTILTKVVDTLHRNKDNFYKEYGEEGTEAEKRAISFLSRLRNELQTDKPVLALTDNAEDTQAWNEYMERQQDLMENGQLVSWFKSPWLYVECYMYRRIQEALYMNPPMHNFDPFKEGKTQSYFESQQAIKYLCTYLQELITNMENMTEIQLRENFLKLIQVSLWGNKCDLSISAGQDNSQKLSPIDSLPDLQRFILVDDSSMVWSTLVASQGSRSSGMKHARVDIILDNAGFELVTDLVLADFLISSGLAKQIRFHGKSIPWFVSDVTKQDFEWTIKQTMAANHKWMSASGVQWKHFMKEGTWSYHDHPFWTLPHEFCDMTVDAANLYSTLQTSDLILFKGDLNYRKLTGDRKWEHTVRFDQALRGFQPAPLCSLRTLKADVQVGLQAGHAEKLSTQDPDWMTNGKYAVVQFSSPHREQ,soluble
15,MSGKEPLNPNPVIASGRKCRLKDSSDGIFRKGRDALEKTAFQAGILFARQRGGIGRAGKRTGGGSFMPSESPPLRLFAKKVGKGTYNPVQSSINI,not soluble
16,MKSEPDTFSIDDLERVGTEPWNGVRNYQARNFMRDGMHVGDGVFFYHSNCKVPGIVGIAKVASAAYPDDTQFDPSSDYHDPKSTREDPRWMLVDVAFERKLTRTISLDEIKQQADALGEGFPLIARGNRLSILPVTAAQWKVLLAMELEHHHHHH,not soluble
17,SLTGAVDKLTLIHYNDVYNIDANSKSEPIGGAARFCTAVRSFSHLNPLVLFSGDAFSPSMLSTFTKGEQMIPVLNTVGTHCAVFGNHDFDHGLDILNEWVEKTNFPWLMSNVVDNETGRPLGGGKITHIMHHNEVKVGLIGLVEKEWLDTLPTIDPNEVTYIDFIKAGNQLADELHNQGCDIIIALTHMRTPNDIELAKHSGHIDLILGGHDHVYEILNIDDTHVIKSGTDFRQFSKIGISLNRNQNGKININVEKVDVNSTKYSEDSELKNELKKYSETIESKMDEVLGTFAVELDGRFSAIRTSETNLGNWICDVALAATGADCVIINSGTFRSDQIHPAGPFTMRDLINIIPMQDPLIVLEVTGKILHQALENSVSTYPKLEGRFPQIAGMSFVFDPTKKAGERVEPKLIRLGDEWLNLEQTYTLCVKSYIYGGCDGYNMFKECRVLMDDDAAPELGLAIQNHFKAIDVRLGK,soluble
18,MGSDKIHHHHHHMDFRLRQMEIFRSVMLTGSINGAAKLLFISQPAVSRIIAHTEQTLGLKLFNRAKGKLIPTPEGVALFRQVDEFYEHALQVNNFARDLAQGATGTLNLSSSPCLSYTVMPRAIAQFIARYPKIRVVYHTSQLNCMATEVLSNKVDVAVAVMPIQHPNVKVEVFTTGKMACVLPKDHPLGSQTVLSLADVSAYPLIVHHPSITFGKLVSTAFRDAGLEMRSRVNVFQTDVACSLVRAGAGIAIVDEYTACAGAWHDLMQRPLAEPITLTPCIVRSAFDNQATHADKFIEILRGVAHAR,not soluble
